{"source": "paper PMC12326010", "about": "“Substrate accessibility regulation of human TopIIa decatenation by cohesin” (Nature Communications, 2025)", "biological_target": "the molecule itself", "assay": "single-molecule fluorescence intensity (confocal scans, optical tweezers); 2 nM TOP2α-AF555 bound at the junction of a DNA braid, 1 mM ATPγS (also four-braid substrates with ATP); 2D Gaussian fit of spot intensity, histogram of photon counts; 50 mM Tris pH 7.5, 125 mM potassium glutamate, 2.5 mM MgCl2, 0.5 mg/mL BSA"}
{"protein": "Human topoisomerase II alpha labelled with Alexa Fluor 555 (TOP2α-AF555) (enzyme, UniProt P11388 1-1531, looked up, Alexa555 conjugated CoA attached by SFP transferase to the ybbr tag (labelling efficiency ~30% or ~70%), Human topoisomerase II alpha (TOP2α), encoded from the pLIB vector with a C-terminal 3C-ybbr-tev-strepII tag; Two preparations: ~30% labelled (Strep-II tag apparently cleaved); The dimer rows rest on the ~30% preparation; also called TOP2α-Alexa555; TopIIa; source: baculovirus, SF9 or HighFive cells, purified (StrepTrap, HiTrap Heparin, size exclusion); not shown: ybbr, C-terminal, kept; StrepII, …) MEVSPLQPVNENMQVNKIKKNEDAKKRLSVERIYQKKTQLEHILLRPDTYIGSVELVTQQMWVYDEDVGINYREVTFVPGLYKIFDEILVNAADNKQRDPKMSCIRVTIDPENNLISIWNNGKGIPVVEHKVEKMYVPALIFGQLLTSSNYDDDEKKVTGGRNGYGAKLCNIFSTKFTVETASREYKKMFKQTWMDNMGRAGEMELKPFNGEDYTCITFQPDLSKFKMQSLDKDIVALMVRRAYDIAGSTKDVKVFLNGNKLPVKGFRSYVDMYLKDKLDETGNSLKVIHEQVNHRWEVCLTMSEKGFQQISFVNSIATSKGGRHVDYVADQIVTKLVDVVKKKNKGGVAVKAHQVKNHMWIFVNALIENPTFDSQTKENMTLQPKSFGSTCQLSEKFIKAAIGCGIVESILNWVKFKAQVQLNKKCSAVKHNRIKGIPKLDDANDAGGRNSTECTLILTEGDSAKTLAVSGLGVVGRDKYGVFPLRGKILNVREASHKQIMENAEINNIIKIVGLQYKKNYEDEDSLKTLRYGKIMIMTDQDQDGSHIKGLLINFIHHNWPSLLRHRFLEEFITPIVKVSKNKQEMAFYSLPEFEEWKSSTPNHKKWKVKYYKGLGTSTSKEAKEYFADMKRHRIQFKYSGPEDDAAISLAFSKKQIDDRKEWLTNFMEDRRQRKLLGLPEDYLYGQTTTYLTYNDFINKELILFSNSDNERSIPSMVDGLKPGQRKVLFTCFKRNDKREVKVAQLAGSVAEMSSYHHGEMSLMMTIINLAQNFVGSNNLNLLQPIGQFGTRLHGGKDSASPRYIFTMLSSLARLLFPPKDDHTLKFLYDDNQRVEPEWYIPIIPMVLINGAEGIGTGWSCKIPNFDVREIVNNIRRLMDGEEPLPMLPSYKNFKGTIEELAPNQYVISGEVAILNSTTIEISELPVRTWTQTYKEQVLEPMLNGTEKTPPLITDYREYHTDTTVKFVVKMTEEKLAEAERVGLHKVFKLQTSLTCNSMVLFDHVGCLKKYDTVLDILRDFFELRLKYYGLRKEWLLGMLGAESAKLNNQARFILEKIDGKIIIENKPKKELIKVLIQRGYDSDPVKAWKEAQQKVPDEEENEESDNEKETEKSDSVTDSGPTFNYLLDMPLWYLTKEKKDELCRLRNEKEQELDTLKRKSPSDLWKEDLATFIEELEAVEAKEKQDEQVGLPGKGGKAKGKKTQMAEVLPSPRGQRVIPRITIEMKAEAEKKNKKKIKNENTEGSPQEDGVELEGLKQRLEKKQKREPGTKTKKQTTLAFKPIKKGKKRNPWSDSESDRSSDESNFDVPPRETEPRRAATKTKFTMDLDSDEDFSDFDEKTDDEDFVPSDASPPKTKTSPKLSNKELKPQKSVVSDLEADDVKGSVPLSSSPPATHFPDETEITNPVPKKNVTVKKTAAKSQSSTSTTGAKKRAAPKGTKRDPALNSGVSQKPDPAKTKNRRKRKPSTSDDSDSNFEKIVSKAVTSKKSKGESDDFHMDFDSAVAPRAKSVRAKKPIKYLEESDEDDLF", "values": [{"measurement": "stoichiometry N", "result": 2}]}
